Measurements taken from patent US20240324599A1, “PESTICIDAL ENZYMES FOR USE ON NEMATODES, INSECTS, AND MOLLUSKS” (priority 2023, published 2024).

Tests used:
Assay type in all cases: in vivo
corn = test: Greenhouse trial: Rhizopus oryzae Esterase corn seed treatment, plant height
Procedure: Rhizopus oryzae Esterase (carboxylesterase, SEQ ID NO:253) was coated onto 6049 V2 hybrid corn seeds. A water only control treatment without esterase enzyme was also created. The seed treated with esterase and control seed was planted in replicated greenhouse trials on promix soil with a fluctuating day/night temperature of 78° F./75° F., and 13 hours of light daily. Plant heights were measured on day 10 for each plant emerged from the soil.

[1] = test system: Garden snails (Cornu aspersum); test: Antifeedant and molluscicide bioassay (artificial diet): consumption, survival, weight gain; conditions: n = 12, 12 days
Procedure: Two-week old garden snails (Cornu aspersum) and full-size black gloss snails (Zonitoides nitidus) were maintained in a semi-darkened tank at 68-70° F. at high humidity, provided with a wet sponge in a petri dish. Snails were transferred to fresh tank every 2-3 days, and they were feed ad libitum with cucumber slices supplemented with calcium carbonate tablets. Individuals were reared in the laboratory for at least a week to fully acclimate to laboratory conditions prior to testing. The individuals ranged between 3 weeks to 2 months old at the time of bioassay.
Filter-sterilized recombinant enzymes including proteases and lipases were prepared as indicated in Example 25. Corresponding controls (e.g., buffer, fermentation of non-recombinant strain, water) were be prepared accordingly. Enzymes were dried by mixing them with Polyvinylpyrrolidone K30 (Thermo Sci Chem, Cat #227545000) at a ratio of 60 mg PVP per mL of enzymes, dispersed on a petri dish and allowed to dry in a bio-safety hood for 24-48 hours.
The treatments were prepared by mixing 0.4 g of dry enzyme and 1 gram of artificial diet mix. The artificial diet mix consisted of flour supplemented with 30 mg sucrose per gram of flour. Control diet contained 0.4 g of PVP and 1 g of artificial diet mix.
12 snails were randomly assigned to each treatment, labeled with permanent marker on the top of the shell for identification, and their weight (mg) was recorded before treatment. Then snails were transferred to dry plastic containers containing two petri dishes. Humidity was maintained with a folded and soaked light duty tissue paper in one petri dish. 1 g of treatment was provided as a thin layer on the other petri dish and was replaced every other day. At the time of treatment replacement, treatment consumption, weight, and mortality were recorded.

[2] = test system: Fall armyworm (Spodoptera frugiperda); test: Diet-surface overlay (DSO) bioassay; conditions: Table 46
Procedure: Diet-surface overlay bioassays are conducted with artificial diet mixes without antibiotics in 1.5 cm^2 cell bioassay trays(s). Artificial diets are commercially available from Southland Products Inc. Diets were prepared by dispersing 0.5 mL of molten diet to each 1.5 cm^2 cell. After solidification, 0.1 mL enzyme treatments were dispersed on top of diet in each cell and the tray was gently rocked in an orbital shaker to spread the liquid uniformly over the diet surface. Trays were placed under clean airflow until the surface of each cell was uniformly dried. One or two 16-cell sections were used per treatment (the number in larvae treated was 16 or 32).
One healthy first instar larva was placed into each treatment cell, each 16-cell section was covered with a re-sealable lid and incubated at 27° C. and light-dark period of 16:8 hrs. After 7 days, and according to the species, the number of individuals in the following developmental categories was recorded.
Negative/untreated controls were treated with filtered water and positive controls were treated with lethal doses of Bacillus thuringiensis subsp. Kurstaki (Btk) spores at 1000 ppm.

soybean = test: Field trial: Geobacillus stearothermophilus esterase soybean seed treatment, yield; conditions: text to Table 58; 0.5 fl oz/unit
From the text: 0.5 fl oz/unit of Esterase (carboxylesterase) from Geobacillus/Bacillus stearothermophilus (SEQ ID NO:252) was coated onto soybean seeds treated with Evergol Energy (prothioconazole, metalaxyl, and penflufen fungicides) at 1 fl oz/cwt, Alias 4F (imidacloprid, insecticide) at 1.25 fl oz/unit, Sensient Red (colorant) at 0.5 fl oz/cwt, and Seedwork 4037L polymer at 1.5 fl oz/cwt. A control treatment without esterase enzyme was also created. The seed treated with esterase and control seed was planted in replicated trials distributed across 6 replicated plots with 4 replicates of 60 ft2 each at each site.

B1: Rhizopus oryzae Esterase (protein, listed as Rhizopus oryzae)
chain: SDGGKVVAATTAQIQEFTKYAGIAATAYCRSVVPGNKWDCVQCQKWVPDGKIITTFTSLLSDTNGYVLRSDKQKTIYLVFRGTNSFRSAITDIVFNFSDYKPVKGAKVHAGFLSSYEQVVNDYFPVVQEQLTANPTYKVIVTGHSLGGAQALLAGMDLYQREPRLSPKNLSIFTVGGPRVGNPTFAYYVESTGIPFQRTAHKRDIVPHVPPQSFGFLHPGVESWIKSGTSNVQICTSEIETKDCSNSIVPFTSILDHLSYFDINEGSCL
modifications: Rhizopus cf. oryzae
Question: For B1, which “Height as % of Control” value (corn; Table 60, corn seed treatment 0.5 fl oz/unit, plant height on day 10, water control 100%) is on record?
Answer: Its value is 103.7%.

Question: What about the “growth rate of corn, in words” value (corn; text to Table 60) of the same molecule?
Answer: Its value is “increase the growth rate”.

B2: PpII Lipase: free lipase from porcine pancreas Type II (PpII) (protein, UniProt P00591 1-450, looked up)
Pancreatic triacylglycerol …: SEVCFPRLGCFSDDAPWAGIVQRPLKILPWSPKDVDTRFLLYTNQNQNNYQELVADPSTITNSNFRMDRKTRFIIHGFIDKGEEDWLSNICKNLFKVESVNCICVDWKGGSRTGYTQASQNIRIVGAEVAYFVEVLKSSLGYSPSNVHVIGHSLGSHAAGEAGRRTNGTIERITGLDPAEPCFQGTPELVRLDPSDAKFVDVIHTDAAPIIPNLGFGMSQTVGHLDFFPNGGKQMPGCQKNILSQIVDIDGIWEGTRDFVACNHLRSYKYYADSILNPDGFAGFPCDSYNVFTANKCFPCPSEGCPQMGHYADRFPGKTNGVSQVFYLNTGDASNFARWRYKVSVTLSGKKVTGHILVSLFGNEGNSRQYEIYKGTLQPDNTHSDEFDSDVEVGDLQKVKFIWYNNNVINPTLPRVGASKITVERNDGKVYDFCSQETVREEVLLTLNPC
Question: For B2, which “Dead Snails” value ([1]; Table 62, lipases, garden snail, control diet 0) is on record?
Answer: The value was 0.

Question: And the Diet consumption ([1]; Table 62, lipases, garden snail, control diet 1.16)?
Answer: Its Diet consumption is 0.82 gr.

Question: And the “food consumption, in words” value ([1]; text to Table 62, lipases)?
Answer: The value was “consistent reduction in food consumption”.

Question: And the “Dead Larva” value ([2]; individuals of n = 32 after 7 days, U/mL diet: Bc 3.8, Pf 5.2, PpII 0.4, Rm 2.8, Lipase nd, water 2)?
Answer: The value was 0.

Question: And the “Larva Stage I” value ([2]; n = 32, doses as E92, water 0)?
Answer: The value was 2.

Question: And the “Larva Stage II” value ([2]; n = 32, doses as E92, water 0)?
Answer: Its value is 5.

Question: What about the “Larva Stage III” value ([2]; n = 32, doses as E92, water 0) of the same molecule?
Answer: The value was 15.

Question: And the “Larva Stage IV” value ([2]; n = 32, doses as E92, water 30)?
Answer: Its value is 10.

B3: Geobacillus stearothermophilus (a.k.a B. Stearothermophilus) Esterase (protein, listed as Bacillus stearothermophilus, listed as Geobacillus stearothermophilus)
chain: MKIVPPKPFFFEAGERAVLLLHGFTGNSADVRMLGRFLESKGYTCHAPIYKGHGVPPEELVHTGPDDWWQDVMNGYEFLKNKGYEKIAVAGLSLGGVFSLKLGYTVPIEGIVTMCAPMYIKSEETMYEGVLEYAREYKKREGKSEEQIEQEMEKFKQTPMKTLKALQELIADVRDHLDLIYAPTFVVQARHDEMINPDSANIIYNEIESPVKQIKWYEQSGHVITLDQEKDQLHEDIYAFLESLDW
Question: B3 was tested. Which “yield versus base seed treatment package, in words” value (soybean) did it give?
Answer: The value was “increased the yield”.
